Results on 3 molecules are retold here after publication PMC3531425, “Low Resolution Solution Structure of HAMLET and the Importance of Its Alpha-Domains in Tumoricidal Activity” (PLoS ONE, 2012).

In one data set the test system is Jurkat cells. Kind of data set: Na^+ flux, CoroNa Green Sodium Indicator, fluorometry. The data set is classed as cell-based, human. The method, then: (§1) To quantify the ion fluxes, fluorometry was measured in a plate reader (TECAN infinite F200, Tecan Group, Switzerland). For calcium fluxes measurement, the Fluo-4 NW calcium assay kit (Invitrogen) was used. For K^+ fluxes, the FluxOR™ potassium ion channel assay (Invitrogen) was used according to the manufacturer's instructions but component E was excluded. Briefly, cells were incubated with FluxOR™, which is a Tl^+ indicator. An increase in fluorescence signal corresponds to an influx of Tl^+, indicating opening of potassium channels, which was measured at 535 nm after excitation at 485 nm in the TECAN infinite plate reader. Given the driving force for K^+ flux across the plasma membrane this corresponds to K^+ efflux. Calcium and potassium fluxes was measured in 20 000 A549 cells plated in a 96-well plate. Sodium was measured in 100 000 Jurkat cells using the CoroNa Green Sodium Indicator (Invitrogen).

The test system of data set [1] is A549 cells. Kind of data set: K^+ flux, FluxOR potassium ion channel assay (Tl^+ influx), fluorometry. The data set is classed as cell-based, human. The method, then: as §1
Data set [2] can be described thus: Solubility of biotinylated peptide (remark). The data set is classed as physicochemical. As to conditions: added at 12 µM instead of 105 uM.
Data set [3] concerns A549 cells. The experiment in a line: Ca^2+ flux, Fluo-4 NW calcium assay, fluorometry. The data set is classed as cell-based, human. How it is done:
as §1

In the next data set the test system is tumor cells. As to conditions: molecular range where the complex kills tumor cells; ref [10], [17]; cited from earlier work. The text has this:
The structural basis for HAMLET's tumoricidal activity is not fully understood. […] Since native α-lactalbumin lacks these activities, we hypothesized that the partially unfolded and ... || Recent Far-UV CD spectroscopy studies have shown that the secondary structural features in HAMLET are similar to those in α-lactalbumin [10], which include an alpha1 and alpha2 domain, consisting of the amino acid residues K1-Q39 and L81-L123, respectively, as well as the beta domain, formed by the residues A40-F80 (Fig. 3A–B). […] As described above the alpha2 domain forms a part of the globular domain (residues L81 to W104) as well as the C-terminal tail with t ...

The test system of data set [4] is lung carcinoma or leukemia cells. The experiment in a line: Tumor cell death (ATP level, PrestoBlue), cell line not given. In kind it is cell-based, human. The settings on record: 3 hours; HAMLET (positive control) or peptide mixed with sodium oleate; cell line not given. How it is done:
A549 human lung carcinoma cell line and the Jurkat human acute T-cell leukemia cell line (obtained from ATCC, Manassas, VA, USA) were cultured in RPMI-1640 with non-essential amino acids (1∶100), 1 mM sodium pyruvate (all from PAA, Pasching, Austria), […] Gentamicin (Gibco, Paisley, UK) and 5% fetal calf serum (FCS) at 37°C, 5% CO2. Cells (5*10^5 cells/ml for A549 cells, 1*10^6 cells/ml for Jurkat cells) in suspension were incubated with either […] or peptide-oleate mixtures in serum-free RPMI-1640 at 37°C, 5% CO2. 5% FCS was added after 1 hour. Cell death was quantified by ATP level measurement (ATPlite Kit, PerkinElmer, Waltham, MA, Infinite F200, Tecan Group Ltd., Männedorf, Switzerland) and by using PrestoBlueTM Cell Viability Reagent (Invitrogen, Carlsbad, CA).

The test system of data set [5] is A549 lung carcinoma cells. The experiment in a line: Cell morphology by phase holographic imaging and transmission DIC. The data set is classed as cell-based, human. As to conditions: adherent A549 cells; HAMLET or peptide-oleate mixture; images every 15 minutes. How it is done: For cellular uptake assays, A549 lung carcinoma cells were grown overnight on 8-well chamber slides (Nalge Nunc, Rochester, NY). Cells were incubated 1 hour with 35 μM biotinylated peptide with or without 175 μM sodium oleate (Sigma) in serum free RPMI media, followed by fixation (4% paraformaldehyde) and permeabilization (0.25% Triton X-100, 5% FCS in phosphate-buffered saline). Peptides were visualized by incubation with streptavidin-Alexa568 (Molecular Probes) and Wheat Germ Agglutinin (WGA) (Molecular Probes) was used to visualize plasma and nuclear membranes. Images were captured on a LSM510 META confocal microscope (Carl Zeiss, Jena, Germany) with pinhole settings corresponding to one airy unit. Quantification of fluorescence intensities was performed with the ImageJ software. The HoloMonitorTM M3 digital holographic microscope (Phase Holographic Imaging AB, Lund, Sweden) records 3D information of cells using interfering wave fronts induced by the exposure to a 0.8 mW HeNe laser (633 nm), resembling a Mach-Zender interferometer where the cells, placed in one of the interfering wave fronts, induce a phase difference between the two beams [26]-[28]. The interference pattern (hologram) is recorded on a digital sensor and is used to reconstruct the amplitude and phase of the object as described, [30]. […]

A short description of data set [6]: Small angle X-ray scattering, state in solution. As to conditions: 2.5 and 6.5 mg/ml in phosphate-buffered saline, 15 °C. In kind it is physicochemical. The text has this:
Small angle X-ray scattering (SAXS) data for HAMLET were collected at the German Electron Synchrotron (DESY) of the EMBL Hamburg using the X33 SAXS camera, [19] located on a bending magnet (sector D) on the storage ring DORIS III. Pilatus 1 M pixel detector (67×420 mm^2) that operates in single photon counting mode was used. A sample - detector distance of 2.4 m which covers the range of momentum transfer 0.1<s<4.5 nm^−1 (s = 4π sin(q)/λ, where q is the scattering angle and λ = 0.15 nm is the X-ray wavelength) was utilized. The calibration of the s-axis was done by the scattering pattern of Silver-behenate salt (d-spacing 5.84 nm). For each sample measurement the scattering from the buffer was measured before and after. The average scattering for the before and after buffer measured was calculated and it is used for background subtraction for each sample. In order to assess and remove any concentration-dependant inter-particle effects for HAMLET, the protein concentrations 2.5 and 6.5 mg/ml in phosphate-buffered saline were used for the measurement. Automated sample-changing robot was used for injecting the protein as well as the buffer samples at the SAXS station X33 [20]. […]
By comparing the forward scattering from the reference solution of bovine serum albumin (BSA), the molecular mass of HAMLET was calculated as described in [18]. […]

Data set [7] deals with glioblastomas, papillomas and bladder cancer. The settings on record: ref [1]–[3]; cited from earlier work. The text has this: Healthy, differentiated cells are much less sensitive to HAMLET and toxic effects on healthy tissues have not been observed in tumor models.

As for “GLFQISNKLWAKSSQ [Peptide 6, 15-amino-acid peptide of α-lactalbumin library]”, the “Na^+ flux, + oleate” value in the data set with Jurkat cells (peptide mixed with sodium oleate, CoroNa Green fluorescence) is “Weak Na^+ fluxes”. Besides, the “K^+ flux, + oleate” value in the data set with A549 cells [1] (peptide mixed with sodium oleate, FluxOR fluorescence) was “No”. Besides, the “K^+ flux, - oleate” value in the data set with A549 cells [1] (peptide without sodium oleate, FluxOR fluorescence) was “No”. Moreover, the Solubility result in [2] is recorded as “lower solubility”. In the data set on A549 cells [3] (peptide mixed with sodium oleate, Fluo-4 fluorescence), the “Ca^2+ flux, + oleate” value is “weaker Ca^2+ flux”. For the same molecule, the “Ca^2+ flux, - oleate” value in the data set with A549 cells [3] (peptide without sodium oleate, Fluo-4 fluorescence) is reported as “No”.

Take `CCCCCCCC/C=C\CCCCCCCC(=O)O` [oleic acid]: in the data set with tumor cells, the “Toxicity of oleic acid alone” value is on record as “not toxic”.

B1: HAMLET (protein)
chain: KQFTKCELSQLLKDIDGYGGIALPELICTMFHTSGYDTQAIVENNESTEYGLFQISNKLWCKSSQVPQSRNICDISCDKFLDDDITDDIMCAKKILDIKGIDYWLAHKALCTEKLEQWLCEKL
For the molecule B1, the “Na^+ flux, substance alone” value with Jurkat cells (HAMLET or sodium oleate alone, CoroNa Green, mean of at least two experiments) is “Na^+ fluxes”. Besides, the “Reduction of cell viability” value in data set [4] amounted to 90%. In addition, the “K^+ flux, substance alone” value with A549 cells [1] (HAMLET or sodium oleate alone, FluxOR, mean of at least two experiments) was “rapid and sustained”. Moreover, the “Morphological change by holographic imaging” value in data set [5] was “increase in cellular optical thickness and a reduction in adherent surface area after 30 minutes, followed by cell detachment at later time points”. For the same molecule, the “Oligomeric state in solution” value in [6] (SAXS forward scattering vs BSA reference) was “monomeric”. Moreover, in data set [6] (SAXS), the “Protein aggregation (Guinier plot)” value is given as “no protein aggregation”. Moreover, in data set [7], the “Therapeutic efficacy in vivo” value is on record as “therapeutic efficacy”. Besides, in the data set on A549 cells [3] (HAMLET or sodium oleate alone, Fluo-4, mean of at least two experiments), the “Ca^2+ flux, substance alone” value was “rapid and sustained”.
